In the RNAGym collection of RNA variant scans (doi:10.7554/elife.80360):

B1: Hairpin Ribozyme (parent)
chain: GUCCUCUUUCACGUGCGCGUGAAAGAGAGAAGUGAACCAGAGAAACACACGUUGUGGUAUAUUACCUGGUA

Variants of: B1
Assay: self-cleavage, relative activity (ratio to wild type); higher = more cleavage; co-transcriptional

Row | Variant | self-cleavage
1 | GUCCUCUUUCACGUGCGCGUGAAAGAGAGAAGGGAACCAGAGAAACACACGUUGUGGUAUAUUAACUGGUA | 0.189
2 | GUCCUCUUUCACGUGCGCGUGAAAGAGAGAAGUGAACCAGUGAAAAACACGUUGUGGUAUAUUACCUGGUA | 0.0476
3 | GUCCUCUUUCACGUGCGCCUGAAAGAGAGAAGUGAACCAGAGUAACACACGUUGUGGUAUAUUACCUGGUA | 0.121
4 | GUCCUCUUUCACGUGCGCGCGAAAGAGAGAAGUGCACCAGAGAAACACACGUUGUGGUAUAUUACCUGGUA | 0.785
5 | GUCCUCGUUCACGUGCGCGUGAAAGAGAGAAGUGAACCAGAGAAACACACGUUGUGGUAUAUUACCUGGAA | 0.673
6 | GUCAUCUUUCACGUGCGCGUGAAAGAGAGAAGUGAACUAGAGAAACACACGUUGUGGUAUAUUACCUGGUA | 0.135
7 | GUCCUCUUUCACGUGCGCGUGAAAGAGAGAAGUGAACGAGAGAAACACACGUUGUGGUGUAUUACCUGGUA | 0.162
8 | GUCAUCUUUCACGUGCGCGUGAAAGAGAGAAGUGAACCAGAGAAACACACGUUGUGGUAUAUUACCUGGUC | 0.674
9 | GUCCUUUUUCACGUGCGCGUGAAAGAGAGAAGUGGACCAGAGAAACACACGUUGUGGUAUAUUACCUGGUA | 0.683
10 | GUCCUCUUUCACGUGCGCGUGAAAGAGAGAGGUGAACCAGAGAAACACACAUUGUGGUAUAUUACCUGGUA | 0.927
11 | CUCCUCUUUCACGUGCGCGUGAAAGAGAGAAGUGAACCAGAGAAACACACGUUGUGGUAUAUUACCUGGGA | 0.166
12 | GUCCUCUUUCACGUGCGCGUGAACUAGAGAAGUGAACCAGAGAAACACACGUUGUGGUAUAUUACCUGGUA | 0.388
13 | GUCCUAUUUCACGUGUGCGUGAAAGAGAGAAGUGAACCAGAGAAACACACGUUGUGGUAUAUUACCUGGUA | 0.659
14 | GUCCUCUUUCACGUGCGCGGGGAAGAGAGAAGUGAACCAGAGAAACACACGUUGUGGUAUAUUACCUGGUA | 0.959
15 | GGCCUCUUUCACGUGCGCGUGAAAGAGAUAAGUGAACCAGAGAAACACACGUUGUGGUAUAUUACCUGGUA | 0.137
16 | GUCCUCUUUCACGUGCGCGUGAAAGACAGAAGUGAACCAGAGAAACACACGUUGUGGUAUAUUACAUGGUA | 0.157
17 | GUCCUCUUUCACGUGCGCGUGAAACAGAAAAGUGAACCAGAGAAACACACGUUGUGGUAUAUUACCUGGUA | 0.13
18 | GUCCUCUUUCACGUGCGCGUGAAAGAGAGAAGUGGACCAGAGAAACACACGUUGUGGUAUAUUACCGGGUA | 0.206
19 | GUCCUCUUUCACGUGCGCGUGAAAGAGAGAAAUGAACCAGAGAAACACACGUUUUGGUAUAUUACCUGGUA | 0.136
20 | AUCCUCUUUCACGUGCGCGUGAAAGAGAGAAGUGAACCAGAGAAACACACGUUGCGGUAUAUUACCUGGUA | 0.243
21 | GUCGUCUUUCACGUGCGCGUGAAAGAGAGAAGUGAACCAGACAAACACACGUUGUGGUAUAUUACCUGGUA | 0.17
22 | GUCCUCUUUCACGUGCCCGUGAAAGAGAGAAGUGAACCCGAGAAACACACGUUGUGGUAUAUUACCUGGUA | 0.528
23 | GUCCUCUUUCACGUGCGCGUGAAAGAGAGAAGUGAACCAGAGAAACACACGUUCUAGUAUAUUACCUGGUA | 0.116
24 | GUCCUCUUUCACGUGCUCGUGAAAGAGAGAUGUGAACCAGAGAAACACACGUUGUGGUAUAUUACCUGGUA | 0.104
25 | GUCCUCUUUCACGUGCGCGUGAAAGAGAGUAGUGAACCAAAGAAACACACGUUGUGGUAUAUUACCUGGUA | 0.0894
26 | GUCCUCUUUCACGUGCGCGUGAAAGAGAGAAGUGAACCAGAGAAACACACGUUGUGGCAUAUUCCCUGGUA | 0.178

Row | Variant | self-cleavage
27 | GUCCUCUUUCACGUGCGCGUGAAAGGGAGACGUGAACCAGAGAAACACACGUUGUGGUAUAUUACCUGGUA | 0.114
28 | GUCCUCUUUCACGUGCGCGUGAAAGUGAGAAGUGAAUCAGAGAAACACACGUUGUGGUAUAUUACCUGGUA | 0.466
29 | GUCCUCUUUCACGUGCGCGUGAAAGAGAGAAGUGAACCAGAGAAACACACGUUGUGGUACAUUACCUGGUU | 1.18
30 | GUCCUCUUUCACGUGCGCGUGAAAGAGAGAAGUGAACCAGAGAAACACACGUUGUGGUAUAUUACCUGACA | 0.387
31 | GUCCUCUUUCCCGUGCGCGUGAAAGAGAGAAGUGAACCAGAGAAACACACGUUGGGGUAUAUUACCUGGUA | 0.249
32 | AUCCUCUUUCACGUGCGCGUGAAAGAGAGAAGCGAACCAGAGAAACACACGUUGUGGUAUAUUACCUGGUA | 0.0709
33 | GUCCUUUUUCACGUGCGCGUGAAAGAGAGAAGUGAACCAGAAAAACACACGUUGUGGUAUAUUACCUGGUA | 0.275
34 | GUCCUCUUUCACGUGCGCGUGAAAGAGAGAAAUGAGCCAGAGAAACACACGUUGUGGUAUAUUACCUGGUA | 0.0788
35 | GUCCUCUUUCACGUGCGCGCGAAAGAGAGAAGUGAACCAGAGCAACACACGUUGUGGUAUAUUACCUGGUA | 0.0285
36 | GUCCUCUUUCACGUGCGCGUGAAAGAGAGAAGUGAACCUGAGAAACACACGUUGUGGUAAAUUACCUGGUA | 0.345
37 | GGCCUCUUUCACGUGCGUGUGAAAGAGAGAAGUGAACCAGAGAAACACACGUUGUGGUAUAUUACCUGGUA | 0.378
38 | GUCCUCUUUCACGUGCGCGUGAAAGAGAGAAGUGAACCAGAGAAUCACACGUUGUAGUAUAUUACCUGGUA | 0.166
39 | GUCCUCUUUCACGUGCGCGUGCAAGAGAGAAGUGAACCAGAGAAACACACGUUGUGGAAUAUUACCUGGUA | 0.68
40 | GUCCUCUUUCACGUGCGCGUGAAAGAGAGAAGAGAGCCAGAGAAACACACGUUGUGGUAUAUUACCUGGUA | 0.202
41 | GUCCUCUUUCACGUGCGCGUGAAAGAAAGAAGCGAACCAGAGAAACACACGUUGUGGUAUAUUACCUGGUA | 0.0597
42 | GUCCUCUUUCACGUGCGCGUGAAAGAGAGAAGUGGACCAGAGAAACACACGUUGUGGUAUAUUGCCUGGUA | 0.277
43 | GUCCUCGUUCACGUGCGCGUGAAAGAGAGAAGUGAACCAGAGAAACACAUGUUGUGGUAUAUUACCUGGUA | 0.371
44 | GUCCUCUUUCACGUGCGCGUGAAAGAGAGAAGUGAACCAGAGAUACACACGUUGUGGUAUAUUAGCUGGUA | 0.178
45 | GUCCUCUUUCACGUGCGCGUGAAAGAGAGAAGUGAACCAGAGAAACACACGUAGUGGUAUAAUACCUGGUA | 0.266
46 | AUCCUCUUUCACGUGCGCGUGAAAGAGAGAAGUGAACCAGAGAAACACACCUUGUGGUAUAUUACCUGGUA | 0.0527
47 | GUCCUCUUUCACGUGCGCGUGAAAUAGAGAAGUGAACCAGAGAAACACACGGUGUGGUAUAUUACCUGGUA | 0.696
48 | GUCCUUUUUCACGUGCGCGUGAAAGAGAGAAGUGAACCAGAGAAACACACGUUGUGGUAUAUUACCUGGGA | 0.588
49 | GUCCUCUUUCACGUGCGCGUGAAAGAAAGAAGUGAACCAGAGGAACACACGUUGUGGUAUAUUACCUGGUA | 0.0988
50 | GUCCUCUUUCACGUGCGCGUGAAAGAGAGAAGUGAACCAGAGAAACAUACGUUGUGGUAUAGUACCUGGUA | 0.108
51 | GUCCUCUUUCACGUGCGCGUGAAAGAGAGAAGUCAACCAGAGAAACACACGUUGUGGUAUAUUACCUUGUA | 0.658
52 | GUCCUCUUUCACGGGCGCAUGAAAGAGAGAAGUGAACCAGAGAAACACACGUUGUGGUAUAUUACCUGGUA | 0.651

Row | Variant | self-cleavage
53 | GUCCUCUUUCACGUGCGCGUGAAAGAGAUAAGUGAACCAGAGAAACACACGUUGUGAUAUAUUACCUGGUA | 0.172
54 | GUCAUCUUUCACGUGCGCGUGAAAGAGAGAAGUAAACCAGAGAAACACACGUUGUGGUAUAUUACCUGGUA | 0.37
55 | GUCUUCUUUCACGUGCGCGUGAAAGAGAGAAGUGAACCAGAGAAACACACGUUGUGGUAUAUUGCCUGGUA | 0.25
56 | GUCCUCUUACACGAGCGCGUGAAAGAGAGAAGUGAACCAGAGAAACACACGUUGUGGUAUAUUACCUGGUA | 0.594
57 | GUCCUCUUUCACGUGCGCGCGAAAGAGAGAAGUGAACCAGAGAAACACACUUUGUGGUAUAUUACCUGGUA | 1.07
58 | GUCCUCUUUCACGUGCGCGUGUAAGAGAGAAGAGAACCAGAGAAACACACGUUGUGGUAUAUUACCUGGUA | 0.172
59 | GUCCUCUUUCACGUGCGUGUGAAAGAGAGAAGUGAGCCAGAGAAACACACGUUGUGGUAUAUUACCUGGUA | 1.15
60 | GUCCUCUUUCACGUGCGCGUGAAAGAGAGCAGUGAACCAGAGAAACACACGUUGUGGUAUAUUACCAGGUA | 0.0972
61 | GUCCUCUUUCACGUGAGCGUGAAGGAGAGAAGUGAACCAGAGAAACACACGUUGUGGUAUAUUACCUGGUA | 0.763
62 | GUCCUCUUUCACGUGCGCGUGAAAGAGACAAGUGAACCAGAGAAACACACGUUGUGGUAUAUUACCGGGUA | 0.12
63 | AUCCUCUUUCACGUGCGCGUGAAAGAGAGAAGUGAACCAGAGAAACAAACGUUGUGGUAUAUUACCUGGUA | 0.156
64 | GUCCUCUUUCACGUGCGCGUGAAAGACAGAAGUCAACCAGAGAAACACACGUUGUGGUAUAUUACCUGGUA | 0.971
65 | GUCCUCCUUCACGUGCGCGUGAAAGAGAGAAGUGAACCAGAGUAACACACGUUGUGGUAUAUUACCUGGUA | 0.151
66 | GUCCUCUUUCACGUGCGCGUGAAAGAGCGAAGUGAACCAGAGAAACACACGUUGAGGUAUAUUACCUGGUA | 0.155
67 | GUCCUCUUUCACGUGCGCGUGAAAGAGAGAAGUGAACCAGAGAAACACACCUAGUGGUAUAUUACCUGGUA | 0.72
68 | GUCCUCUUUCACGUGCGCGUGAAAGAGAGAAGUGAAUCAGACAAACACACGUUGUGGUAUAUUACCUGGUA | 0.226
69 | GUCCUCUUUCACGUGCGCGUGAAAGAGACAAGUGAAGCAGAGAAACACACGUUGUGGUAUAUUACCUGGUA | 0.084
70 | GUCCUCUUUCACGUGCGCGUGAAAGAGAGAAGUGAUCCCGAGAAACACACGUUGUGGUAUAUUACCUGGUA | 0.084
71 | GUCCUCUUUCACGUGCGCGUGAAAGAUAGAAGUGAACCAGAGAAACACACGUUGUGGUAUAUCACCUGGUA | 0.0849
72 | GUCCUCUUUCACGUGCGCGUGAAAGAGAGAAGUGAACCAGAGAAACACACGUUGAGGUAUGUUACCUGGUA | 0.156
73 | GUCCUUUUUCAUGUGCGCGUGAAAGAGAGAAGUGAACCAGAGAAACACACGUUGUGGUAUAUUACCUGGUA | 0.696
74 | GUCGUCUUUCACGUGCGCGUGAGAGAGAGAAGUGAACCAGAGAAACACACGUUGUGGUAUAUUACCUGGUA | 0.25
75 | GUUCUCUUUCACGUGCGCGUGAAAGAGAGAAGUGAACCAGAGAAACACACGUUGUGGUAUAUAACCUGGUA | 0.189
76 | GUCCUCUUUCACGUGCGCGUGUAAGAGAGAAGUGAACCAGAGGAACACACGUUGUGGUAUAUUACCUGGUA | 0.237
